Reference: patent publication US20230265217A1

B1: 7-26 (VHH)
VHH: EVQLVESGGGLVQPGGSLRLSCAASGSTFSINAMGWFRQAPGKEREFVAGITSSGGYTNYADSVKGRFTISADNSKNTAYLQMNSLKPEDTAVYYCAADGVPEYSDYASGPVWGQGTLVTVSS
B2: 3-31 (VHH)
VHH: B1 VHH

How the values were obtained:
Details in all cases: remark: other sources report otherwise
[1] = biological target: S1 RBD L452R E484Q (Acro) (SARS-CoV-2), P0DTC2; test: Carterra SPR
[2] = biological target: T1, SARS-CoV-2 S protein trimer (Alpha B.1.1.7 UK variant) [SPN-C52H6] (SARS-CoV-2), P0DTC2; test: binding kinetics, Carterra SPR
[3] = biological target: T2, SARS-CoV-2 S protein trimer (Beta B.1.351 SA variant) [SPN-C52Hk] (SARS-CoV-2), P0DTC2; test: binding kinetics, Carterra SPR
[4] = biological target: T3, SARS-CoV-2 S protein trimer (Delta B.1.617.2 India variant) [SPN-C52He] (SARS-CoV-2), P0DTC2; test: binding kinetics, Carterra SPR
[5] = biological target: T4, SARS-CoV-2 S protein trimer (Kappa B.1.617.1 India variant) [SPN-C52Hr] (SARS-CoV-2), P0DTC2; test: binding kinetics, Carterra SPR
[6] = biological target: SARS-CoV-2 S protein trimer [SPN-C52H9] (SARS-CoV-2), P0DTC2; test: binding kinetics, Carterra SPR
[7] = biological target: T1, SARS-CoV-2 S protein trimer (Alpha …); test: Carterra SPR
[8] = biological target: T2, SARS-CoV-2 S protein trimer (Beta …); test: Carterra SPR
[9] = biological target: T3, SARS-CoV-2 S protein trimer (Delta …); test: Carterra SPR
[10] = biological target: T4, SARS-CoV-2 S protein trimer (Kappa …); test: Carterra SPR
[11] = biological target: SARS-CoV-2 S protein trimer (P.1 Gamma Brazil variant) [SPN-C52Hg] (SARS-CoV-2), P0DTC2; test: Carterra SPR
[12] = biological target: SARS-CoV-2 S protein trimer [SPN-C52H7] (SARS-CoV-2), P0DTC2; test: Carterra SPR

Row | Binder | Kd [1] [nM] | Kd [2] [nM] | koff [2] [s⁻¹] | kon [2] [M⁻¹ s⁻¹] | Kd [3] [nM] | koff [3] [s⁻¹] | kon [3] [M⁻¹ s⁻¹] | Kd [4] [nM] | koff [4] [s⁻¹] | kon [4] [M⁻¹ s⁻¹] | Kd [5] [nM] | koff [5] [s⁻¹] | kon [5] [M⁻¹ s⁻¹] | Kd [6] [nM] | koff [6] [s⁻¹] | kon [6] [M⁻¹ s⁻¹] | other results
1 | B1 | 18 | < 0.00965 | < 1e-05 | 1.04e+06 | < 0.00808 | < 1e-05 | 1.24e+06 | < 0.0104 | < 1e-05 | 958000 | < 0.00852 | < 1e-05 | 1.17e+06 | < 0.011 | < 1e-05 | 911000 | 
2 | B2 | 16.2 | < 0.0108 | < 1e-05 | 925000 | < 0.0098 | < 1e-05 | 1.02e+06 | < 0.0107 | < 1e-05 | 938000 | < 0.01 | < 1e-05 | 1e+06 | < 0.0136 | < 1e-05 | 734000 | Kd [7]: 0.0143 nM; koff [7]: 1e-05 s⁻¹; kon [7]: 699000 M⁻¹ s⁻¹; Kd [8]: 0.0117 nM; koff [8]: 1e-05 s⁻¹; kon [8]: 851000 M⁻¹ s⁻¹; Kd [9]: 0.0134 nM; koff [9]: 1e-05 s⁻¹; kon [9]: 744000 M⁻¹ s⁻¹; Kd [10]: 0.0129 nM; koff [10]: 1e-05 s⁻¹; kon [10]: 777000 M⁻¹ s⁻¹; Kd [11]: < 0.012 nM; koff [11]: < 1e-05 s⁻¹; kon [11]: 834000 M⁻¹ s⁻¹; Kd [12]: < 0.0167 nM; koff [12]: < 1e-05 s⁻¹; kon [12]: 600000 M⁻¹ s⁻¹
